One molecule from US20260234246A1 (CAEDO ONCOLOGY, published 2026) can be followed below.

Test [1] addresses T1, human CD47 on the surface of cells (human cancer cell lines and human red blood cells) (human, UniProt Q08722 19-323).
T1 construct: Native CD47 of human cell lines (Jurkat, Reh, CCRF-CEM and others) and of RBCs from healthy donors; also called cell-surface CD47
In words: flow cytometry, FITC-mCO-1 on HT-1376 cells.

In test [2] the target is T1, human CD47 on the surface of cells …. In words: flow cytometry, FITC-mCO-1 on H4 cells.
Description: (§1) PBS-washed cancer cell lines or RBCs were pelleted and washed with washing buffer (3% (w/v) BSA, 1% (w/v) sodium azide in PBS) and incubated with Human BD Fc Block for 10 minutes before being plated into a round-bottom 96 well plate (2.5×10⁵ cells per well). Antibodies were conjugated with FITC using the FITC conjugation kit from Abcam. […] All samples were prepared in duplicates. Cells were washed three times and resuspended in cold washing buffer. Cells were kept on ice until analyses by flow cytometry. Excitation wavelength FITC: 488 nm, detection: 530/30 nm.
Test [3] shares this target. In words: flow cytometry, FITC-mCO-1 on UM-UC-3 cells.
The target is the same in test [4]. The experiment in a line: flow cytometry, FITC-mCO-1 on Raji cells.
For test [5] the target is unchanged. The experiment in a line: flow cytometry, FITC-mCO-1 on U-87-MG cells.
Test [6] has the same target. The experiment in a line: flow cytometry on human RBCs (same experiment as paragraph 345, printed more exactly).
For test [7] the target is unchanged. In words: flow cytometry, FITC-mCO-1 on HT-1197 cells.
Description: as §1
For test [8] the target is unchanged. The experiment in a line: flow cytometry, FITC-mCO-1 on Reh cells.
For test [9] the target is unchanged. In words: flow cytometry, FITC-mCO-1 on human RBCs (FIG. 1E).
Description: as §1
Test [10] has the same target. The experiment in a line: flow cytometry, FITC-mCO-1 on T24 cells.
Description: as §1
Test [11] has the same target. In words: flow cytometry, FITC-mCO-1 on K-562 cells.
Description: as §1
Test [12] shares this target. The experiment in a line: flow cytometry, FITC-mCO-1 on A-172 cells.
For test [13] the target is unchanged. The experiment in a line: flow cytometry, FITC-mCO-1 on HL-60 cells.
The target is the same in test [14]. In words: flow cytometry, FITC-mCO-1 on SW1088 cells.
Description: as §1
The target is the same in test [15]. In words: flow cytometry, FITC-mCO-1 on MOLT-4 cells.
Test [16] has the same target. The experiment in a line: flow cytometry, FITC-mCO-1 on SUP-T1 cells.
Description: as §1
The target is the same in test [17]. The experiment in a line: flow cytometry, FITC-mCO-1 on TCCSUP cells.
Description: as §1
For test [18] the target is unchanged. In words: flow cytometry, FITC-mCO-1 on U-118-MG cells.
Description: as §1
For test [19] the target is unchanged. The experiment in a line: flow cytometry, FITC-mCO-1 on SW780 cells.
For test [20] the target is unchanged. The experiment in a line: flow cytometry, FITC-mCO-1 on CCRF-CEM cells.

T1 sequence (Q08722 19-323 limits assumed): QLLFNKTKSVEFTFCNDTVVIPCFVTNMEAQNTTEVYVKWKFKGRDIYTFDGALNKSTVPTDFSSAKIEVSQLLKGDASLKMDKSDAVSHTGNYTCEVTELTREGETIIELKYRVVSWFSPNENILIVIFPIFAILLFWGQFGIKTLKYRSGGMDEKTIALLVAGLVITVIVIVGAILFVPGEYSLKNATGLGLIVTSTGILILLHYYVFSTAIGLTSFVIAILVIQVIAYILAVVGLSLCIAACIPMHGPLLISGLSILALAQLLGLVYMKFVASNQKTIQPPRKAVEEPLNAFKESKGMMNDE

B1: murine CO-1 (mCO-1) antibody (antibody, V domains shown)
VH: QIQLVQSGPELKKPGETVKISCKASGYTFTNFGMHWVKQAPGKGLKWMGWINTYTGEPTYTDDFKGRFAFSLETSASTAYLQINSLKNEDTATFFCTRGDYRYGDSWGQGTTLTVSS
VL: DVVMTQTPLSLPVSLGDQASISCRSSQSLVHSNGKTYLHWYLQKPGQSPKLLIYRVSNRFSGVPDRFSGSGSGTDFTLKISRIEAEDLGVYFCSQSTHVPFTFGSGTKLEIK
notes: Full length mouse IgG1 kappa antibody from a hybridoma
With B1, the half-maximal effective concentration (EC50) in test [1] worked out at 0.286 µg/mL; in test [2], 2.46 µg/mL; in test [3], 0.0553 µg/mL; in test [4], 0.0267 µg/mL; in [5], 2.99 µg/mL; in [6], 0.044 µg/mL. Further, the concentration for a half-maximal effect (EC50) came out at 0.786 µg/mL in test [7]; 2.8 µg/mL in test [8]; 0.04 µg/mL in [9]; 0.9 µg/mL in test [10]; 0.354 µg/mL in test [11]; 3.5 µg/mL in test [12]. Also, the EC50 in [13] was 0.593 µg/mL; in [14], 1.17 µg/mL; in [15], 0.0106 µg/mL; in test [16], 0.00425 µg/mL; in test [17], 2.4 µg/mL; in test [18], 0.404 µg/mL. Further, the half-maximal effective concentration (EC50) was found to be 0.334 µg/mL in test [19] and 0.00109 µg/mL in [20].
